Three sequences from PMC10581170 can be followed below.

This data set deals with T1, CzcR (His6-CzcR) (Pseudomonas aeruginosa PAO1?) (UniProt Q9RLJ1).
T1 sequence: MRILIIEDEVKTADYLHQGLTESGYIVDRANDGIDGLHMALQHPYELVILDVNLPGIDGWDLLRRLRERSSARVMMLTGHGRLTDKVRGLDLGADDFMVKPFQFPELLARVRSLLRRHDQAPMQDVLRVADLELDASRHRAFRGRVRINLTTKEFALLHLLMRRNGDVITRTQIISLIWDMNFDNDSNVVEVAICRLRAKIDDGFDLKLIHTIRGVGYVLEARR
In words: EMSA. (In general: In EMSA bound probe runs differently from free probe, usually more slowly.)

For “GATAACCGGCCATCGAGCTAAAACGTTTCAGGTGTTTTCACGCGAGGCTTTCGGACGTTTACAAACACCTATGAATGTAAGTATTTTGCCTGCCTTCTTCGAGCCGGTGCAGCGCCTTCACGCTGCATCGGCCGCTTTCGCTCATGAGGACAACGCTATGCAACGAAC (double strand) [mexAB-oprM promoter probe (PmexA)]”, the binding entry is on record as “binds”. The value for “GAATCCACCTGAAACCCACGCCCAGCAAGGCCTATAGCACTAATCACAGACGCCCTTGACCTCAACTTAACTTGAGGTTTTATAGTCCCCGCTGCGGTCATACCGCCCCGTTTCCCCAGGACCACGAACCGCCCCCACGGCCGCTTCGCGGCGCCGGATGGCGACCAGCACAAGGAACGACCCATGCAGCGCTTC (double strand) [mexGHI-opmD promoter probe (PmexG)]” was “binds”; that for “GCAACCGTTCGGAACATTCTTCCCGTCGGGGGTAGGCGAGCGACTTGCCCTGTGGAATAATACTGTCTACTTATACAGTTGTTCGTGGCCGTCCGGCCGCCCTGACTTCGCGAGGACTTCAATGGA (double strand) [recA promoter fragment (PrecA)]” was “no binding”.
